This passage reports IC50 and Kd results from US20190233519A1.

Experiment [1] deals with biotin-labeled hCTLA-4/Fc protein (UniProt P16410). Nature of the experiment: FACS competition, biotin hCTLA-4-Fc on CHO cells expressing human B7-1.
Experiment [2] addresses CTLA-4-His protein (UniProt P16410). Nature of the experiment: SPR, antibody captured by Fc, CTLA-4-His as analyte.

CTLA-4-His protein, sequence (P16410 37-161 limits assumed): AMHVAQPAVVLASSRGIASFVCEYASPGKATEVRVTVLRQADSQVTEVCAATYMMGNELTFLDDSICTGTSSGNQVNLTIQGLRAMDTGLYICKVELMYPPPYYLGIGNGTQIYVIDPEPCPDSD
biotin-labeled hCTLA-4/Fc protein, sequence (P16410 37-161): as the sequence (P16410 37-161 limits assumed) above

The substance ipilimumab (YERVOY®) (antibody) yielded a half-maximal inhibitory concentration (IC50) in experiment [1] of 8.5 nM. For the same substance, the Kd in experiment [2] came to 17.3 nM.
